Test results reported in FireProtDB (doi:10.1126/science.aai7825).

B1: dTDP-glucose 4,6-dehydratase 1 wild type, P37759 (protein)
chain: MKILVTGGAGFIGSAVVRHIINNTQDSVVNVDKLTYAGNRESLADVSDSERYVFEHADICDAPAMARIFAQHQPDAVMHLAAESHVDRSITGPAAFIETNIVGTYVLLEAARNYWSALDSDKKNSFRFHHISTDEVYGDLPHPDEVNNTEELPLFTETTAYAPSSPYSASKASSDHLVRAWKRTYGLPTIVTNCSNNYGPYHFPEKLIPLVILNALEGKALPIYGKGDQIRDWLYVEDHARALYTVVTEGKAGETYNIGGHNEKKNIDVVLTICDLLDEIVPKEKSYREQITYVADRPGHDRRYAIDAEKIGRALGWKPQETFESGIRKTVEWYLSNTKWVDNVKSGAYQSWIEQNYEGRQ
B2: Probable ATP-dependent transporter SufC wild type, P77499 (protein)
chain: MLSIKDLHVSVEDKAILRGLSLDVHPGEVHAIMGPNGSGKSTLSATLAGREDYEVTGGTVEFKGKDLLALSPEDRAGEGIFMAFQYPVEIPGVSNQFFLQTALNAVRSYRGQETLDRFDFQDLMEEKIALLKMPEDLLTRSVNVGFSGGEKKRNDILQMAVLEPELCILDESDSGLDIDALKVVADGVNSLRDGKRSFIIVTHYQRILDYIKPDYVHVLYQGRIVKSGDFTLVKQLEEQGYGWLTEQQ
B3: Phosphoribosylaminoimidazole-succinocarboxamide synthase wild type, P0A7D7 (protein)
chain: MQKQAELYRGKAKTVYSTENPDLLVLEFRNDTSAGDGARIEQFDRKGMVNNKFNYFIMSKLAEAGIPTQMERLLSDTECLVKKLDMVPVECVVRNRAAGSLVKRLGIEEGIELNPPLFDLFLKNDAMHDPMVNESYCETFGWVSKENLARMKELTYKANDVLKKLFDDAGLILVDFKLEFGLYKGEVVLGDEFSPDGSRLWDKETLEKMDKDRFRQSLGGLIEAYEAVARRLGVQLD
B4: UTP--glucose-1-phosphate uridylyltransferase wild type, P0AEP3 (protein)
chain: MAAINTKVKKAVIPVAGLGTRMLPATKAIPKEMLPLVDKPLIQYVVNECIAAGITEIVLVTHSSKNSIENHFDTSFELEAMLEKRVKRQLLDEVQSICPPHVTIMQVRQGLAKGLGHAVLCAHPVVGDEPVAVILPDVILDEYESDLSQDNLAEMIRRFDETGHSQIMVEPVADVTAYGVVDCKGVELAPGESVPMVGVVEKPKADVAPSNLAIVGRYVLSADIWPLLAKTPPGAGDEIQLTDAIDMLIEKETVEAYHMKGKSHDCGNKLGYMQAFVEYGIRHNTLGTEFKAWLEEEMGIKK
B5: Ribosomal small subunit pseudouridine synthase A wild type, P0AA43 (protein)
chain: MRLDKFIAQQLGVSRAIAGREIRGNRVTVDGEIVRNAAFKLLPEHDVAYDGNPLAQQHGPRYFMLNKPQGYVCSTDDPDHPTVLYFLDEPVAWKLHAAGRLDIDTTGLVLMTDDGQWSHRITSPRHHCEKTYLVTLESPVADDTAEQFAKGVQLHNEKDLTKPAVLEVITPTQVRLTISEGRYHQVKRMFAAVGNHVVELHRERIGGITLDADLAPGEYRPLTEEEIASVV
B6: Mannosyl-3-phosphoglycerate phosphatase wild type, P76329 (protein)
chain: MFSIQQPLLVFSDLDGTLLDSHSYDWQPAAPWLTRLREANVPVILCSSKTSAEMLYLQKTLGLQGLPLIAENGAVIQLAEQWQEIDGFPRIISGISHGEISLVLNTLREKEHFKFTTFDDVDDATIAEWTGLSRSQAALTQLHEASVTLIWRDSDERMAQFTARLNELGLQFMQGARFWHVLDASAGKDQAANWIIATYQQLSGKRPTTLGLGDGPNDAPLLEVMDYAVIVKGLNREGVHLHDEDPARVWRTQREGPEGWREGLDHFFSAR
B7: UDP-glucose 4-epimerase wild type, P09147 (protein)
chain: MRVLVTGGSGYIGSHTCVQLLQNGHDVIILDNLCNSKRSVLPVIERLGGKHPTFVEGDIRNEALMTEILHDHAIDTVIHFAGLKAVGESVQKPLEYYDNNVNGTLRLISAMRAANVKNFIFSSSATVYGDQPKIPYVESFPTGTPQSPYGKSKLMVEQILTDLQKAQPDWSIALLRYFNPVGAHPSGDMGEDPQGIPNNLMPYIAQVAVGRRDSLAIFGNDYPTEDGTGVRDYIHVMDLADGHVVAMEKLANKPGVHIYNLGAGVGNSVLDVVNAFSKACGKPVNYHFAPRREGDLPAYWADASKADRELNWRVTRTLDEMAQDTWHWQSRHPQGYPD
B8: dTDP-4-dehydrorhamnose 3,5-epimerase wild type, P37745 (protein)
chain: MNVIRTEIEDVLILEPRVFGDDRGFFYESFNQSAFEHILGYPVSFVQDNHSRSSKNVLRGLHFQRGEYAQDKLVRCTHGAVFDVAVDIRPNSVSFGKWVGVLLSADNKQQLWIPKGFAHGFLVLSDIAEFQYKTTNYYHPESDCGICWNDERIAIDWPQTSGLILSPKDERLFTLDELIRLKLIA
B9: Putative NAD(P)H nitroreductase YdjA wild type, P0ACY1 (protein)
chain: MDALELLINRRSASRLAEPAPTGEQLQNILRAGMRAPDHKSMQPWHFFVIEGEGRERFSAVLEQGAIAAGSDDKAIDKARNAPFRAPLIITVVAKCEENHKVPRWEQEMSAGCAVMAMQMAAVAQGFGGIWRSGALTESPVVREAFGCREQDKIVGFLYLGTPQLKASTSINVPDPTPFVTYF
B10: Phosphoribosylglycinamide formyltransferase wild type, P08179 (protein)
chain: MNIVVLISGNGSNLQAIIDACKTNKIKGTVRAVFSNKADAFGLERARQAGIATHTLIASAFDSREAYDRELIHEIDMYAPDVVVLAGFMRILSPAFVSHYAGRLLNIHPSLLPKYPGLHTHRQALENGDEEHGTSVHFVTDELDGGPVILQAKVPVFAGDSEDDITARVQTQEHAIYPLVISWFADGRLKMHENAAWLDGQRLPPQGYAADE
B11: Formate-dependent phosphoribosylglycinamide formyltransferase wild type, P33221 (protein)
chain: MTLLGTALRPAATRVMLLGSGELGKEVAIECQRLGVEVIAVDRYADAPAMHVAHRSHVINMLDGDALRRVVELEKPHYIVPEIEAIATDMLIQLEEEGLNVVPCARATKLTMNREGIRRLAAEELQLPTSTYRFADSESLFREAVADIGYPCIVKPVMSSSGKGQTFIRSAEQLAQAWKYAQQGGRAGAGRVIVEGVVKFDFEITLLTVSAVDGVHFCAPVGHRQEDGDYRESWQPQQMSPLALERAQEIARKVVLALGGYGLFGVELFVCGDEVIFSEVSPRPHDTGMVTLISQDLSEFALHVRAFLGLPVGGIRQYGPAASAVILPQLTSQNVTFDNVQNAVGADLQIRLFGKPEIDGSRRLGVALATAESVVDAIERAKHAAGQVKVQG
B12: Phenylalanine--tRNA ligase alpha subunit wild type, P08312 (protein)
chain: MSHLAELVASAKAAISQASDVAALDNVRVEYLGKKGHLTLQMTTLRELPPEERPAAGAVINEAKEQVQQALNARKAELESAALNARLAAETIDVSLPGRRIENGGLHPVTRTIDRIESFFGELGFTVATGPEIEDDYHNFDALNIPGHHPARADHDTFWFDTTRLLRTQTSGVQIRTMKAQQPPIRIIAPGRVYRNDYDQTHTPMFHQMEGLIVDTNISFTNLKGTLHDFLRNFFEEDLQIRFRPSYFPFTEPSAEVDVMGKNGKWLEVLGCGMVHPNVLRNVGIDPEVYSGFAFGMGMERLTMLRYGVTDLRSFFENDLRFLKQFK
B13: Transcriptional regulatory protein CusR wild type, P0ACZ8 (protein)
chain: MKLLIVEDEKKTGEYLTKGLTEAGFVVDLADNGLNGYHLAMTGDYDLIILDIMLPDVNGWDIVRMLRSANKGMPILLLTALGTIEHRVKGLELGADDYLVKPFAFAELLARVRTLLRRGAAVIIESQFQVADLMVDLVSRKVTRSGTRITLTSKEFTLLEFFLRHQGEVLPRSLIASQVWDMNFDSDTNAIDVAVKRLRGKIDNDFEPKLIQTVRGVGYMLEVPDGQ
B14: GTPase ObgE/CgtA wild type, P42641 (protein)
chain: MKFVDEASILVVAGDGGNGCVSFRREKYIPKGGPDGGDGGDGGDVWMEADENLNTLIDYRFEKSFRAERGQNGASRDCTGKRGKDVTIKVPVGTRVIDQGTGETMGDMTKHGQRLLVAKGGWHGLGNTRFKSSVNRTPRQKTNGTPGDKRELLLELMLLADVGMLGMPNAGKSTFIRAVSAAKPKVADYPFTTLVPSLGVVRMDNEKSFVVADIPGLIEGAAEGAGLGIRFLKHLERCRVLLHLIDIDPIDGTDPVENARIIISELEKYSQDLATKPRWLVFNKIDLLDKVEAEEKAKAIAEALGWEDKYYLISAASGLGVKDLCWDVMTFIIENPVVQAEEAKQPEKVEFMWDDYHRQQLEEIAEEDDEDWDDDWDEDDEEGVEFIYKR
B15: Integration host factor subunit alpha wild type, P0A6X7 (protein)
chain: MALTKAEMSEYLFDKLGLSKRDAKELVELFFEEIRRALENGEQVKLSGFGNFDLRDKNQRPGRNPKTGEDIPITARRVVTFRPGQKLKSRVENASPKDE
B16: Glucokinase wild type, P0A6V8 (protein)
chain: MTKYALVGDVGGTNARLALCDIASGEISQAKTYSGLDYPSLEAVIRVYLEEHKVEVKDGCIAIACPITGDWVAMTNHTWAFSIAEMKKNLGFSHLEIINDFTAVSMAIPMLKKEHLIQFGGAEPVEGKPIAVYGAGTGLGVAHLVHVDKRWVSLPGEGGHVDFAPNSEEEAIILEILRAEIGHVSAERVLSGPGLVNLYRAIVKADNRLPENLKPKDITERALADSCTDCRRALSLFCVIMGRFGGNLALNLGTFGGVFIAGGIVPRFLEFFKASGFRAAFEDKGRFKEYVHDIPVYLIVHDNPGLLGSGAHLRQTLGHIL
B17: Protein GrpE wild type, P09372 (protein)
chain: MSSKEQKTPEGQAPEEIIMDQHEEIEAVEPEASAEQVDPRDEKVANLEAQLAEAQTRERDGILRVKAEMENLRRRTELDIEKAHKFALEKFINELLPVIDSLDRALEVADKANPDMSAMVEGIELTLKSMLDVVRKFGVEVIAETNVPLDPNVHQAIAMVESDDVAPGNVLGIMQKGYTLNGRTIRAAMVTVAKAKA

details: Escherichia coli (strain K12); pH 7.5; Thermal; Intensity; HEPES 20mM; transition: 2; whole UniProt chain shown

Protein | Tm [°C]
B1 | 44.3
B2 | 44.9
B3 | 43.1
B4 | 45.6
B5 | 45
B6 | 43.9
B7 | 45
B8 | 44.2
B9 | 45.3
B10 | 43.5
B11 | 43.4
B12 | 43.3
B13 | 43.7
B14 | 44.5
B15 | 44.6
B16 | 44.4
B17 | 44
